Measured values published in PMC4269863.

Tests used:
soluble CD4 = soluble CD4 (UniProt P01730); assay: ELISA; 0.5 μg soluble CD4 coated on maxisorp strips; about 48 ng p24 of virus lysed with Triton-X100 added 1 h at 37°C; bound gp120 detected with sheep antibody D7324; normalised to WT∆Env virus, relative to WT (100%)
[1] = target: envelope glycoproteins gp120/gp41 of HIV-1 NL4.3 virus with gp41 N611Q (HIV-1 NL4.3)
[2] = target: envelope glycoproteins gp120/gp41 of HIV-1 NL4.3 virus with gp41 N625Q (HIV-1 NL4.3)
[3] = target: envelope glycoproteins gp120/gp41 of HIV-1 NL4.3 virus with gp41 N637Q (HIV-1 NL4.3)
[4] = target: envelope glycoproteins gp120/gp41 of HIV-1 NL4.3 virus with gp41 N674Q (HIV-1 NL4.3)
[5] = target: envelope glycoproteins gp120/gp41 of wild-type HIV-1 NL4.3 virus (HIV-1 NL4.3)
[6] = target: envelope glycoproteins gp120/gp41 of HIV-1 NL4.3 virus with gp41 N611Q/N637Q (HIV-1 NL4.3)
[7] = target: envelope glycoproteins gp120/gp41 of HIV-1 NL4.3 virus with gp41 N611Q/N637Q/N674Q (HIV-1 NL4.3)
[8] = target: envelope glycoproteins gp120/gp41 of HIV-1 NL4.3 virus with gp41 N625Q/N637Q (HIV-1 NL4.3)
[9] = target: envelope glycoproteins gp120/gp41 of HIV-1 NL4.3 virus with gp41 N625Q/N637Q/N674Q (HIV-1 NL4.3)
[10] = target: envelope glycoproteins gp120/gp41 of HIV-1 NL4.3 virus with gp41 N625Q/N674Q (HIV-1 NL4.3)
[11] = target: envelope glycoproteins gp120/gp41 of HIV-1 NL4.3 virus with gp41 N637Q/N674Q (HIV-1 NL4.3)
[12] = target: envelope glycoproteins gp120/gp41 of HIV-1 NL4.3 virus with gp41 N674D (HIV-1 NL4.3)
[13] = target: HIV-1 surface envelope glycoprotein gp120 (immobilised for SPR) (HIV-1 (strain not stated)) (UniProt P04578); assay: SPR; gp120 and gp41 covalently immobilised by amine coupling on a CM4 chip (about 115 and 45 RU), HSA as control surface; CBAs injected as two-fold dilutions; Biacore T200, 25°C, HBS-P (10 mM HEPES, 150 mM NaCl, 0.05% surfactant P20, pH 7.4) with 10 mM CaCl2; 1:1 Langmuir model
[14] = target: HIV-1 transmembrane envelope glycoprotein gp41 (immobilised for SPR) (HIV-1 (strain not stated)) (UniProt P04578); assay: as above

Sequence of actinohivin (Q9KWN0 47-160): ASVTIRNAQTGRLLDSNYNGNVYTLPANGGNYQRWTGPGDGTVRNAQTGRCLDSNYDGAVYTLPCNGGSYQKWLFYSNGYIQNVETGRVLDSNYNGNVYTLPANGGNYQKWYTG

Row | Substance | binding efficiency, percent of WT (soluble CD4) | EC50 of inhibition of cell-free virus infection of C8166 cells (eGFP, flow cytometry, 72 h) [1] | EC50 of inhibition of cell-free virus infection of C8166 cells (eGFP, flow cytometry, 72 h) [2] | EC50 of inhibition of cell-free virus infection of C8166 cells (eGFP, flow cytometry, 72 h) [3] | EC50 of inhibition of cell-free virus infection of C8166 cells (eGFP, flow cytometry, 72 h) [4] | EC50 of inhibition of cell-free virus infection of C8166 cells (eGFP, flow cytometry, 72 h) [5] | EC50 of inhibition of cell-free virus infection of C8166 cells (eGFP, flow cytometry, 72 h) [6] | EC50 of inhibition of cell-free virus infection of C8166 cells (eGFP, flow cytometry, 72 h) [7] | EC50 of inhibition of cell-free virus infection of C8166 cells (eGFP, flow cytometry, 72 h) [8] | EC50 of inhibition of cell-free virus infection of C8166 cells (eGFP, flow cytometry, 72 h) [9] | EC50 of inhibition of cell-free virus infection of C8166 cells (eGFP, flow cytometry, 72 h) [10] | EC50 of inhibition of cell-free virus infection of C8166 cells (eGFP, flow cytometry, 72 h) [11] | EC50 of inhibition of cell-free virus infection of C8166 cells (eGFP, flow cytometry, 72 h) [12] | Kd [13] | Kd [14]
1 | envelope glycoproteins gp120/gp41 of HIV-1 NL4.3 virus with gp41 N625Q (complex) | 130 % of WT |  |  |  |  |  |  |  |  |  |  |  |  |  | 
2 | Urtica dioica agglutinin (natural protein) |  | 32 nM | 27 nM | 57 nM | 32 nM | 25 nM | 63 nM | 52 nM | 51 nM | 35 nM | 30 nM | 28 nM | 34 nM | 9 nM | 3.7 nM
3 | Hippeastrum hybrid agglutinin (natural protein) |  | 1.6 nM | 1.4 nM | 3.7 nM | 1.3 nM | 0.9 nM | 2.7 nM | 2.8 nM | 1.4 nM | 2.1 nM | 1.3 nM | 1.6 nM | 1.9 nM | 0.5 nM | 0.4 nM
4 | actinohivin (from UniProt Q9KWN0 47-160) (natural protein) |  | 5.4 nM | 8.1 nM | 15 nM | 8.3 nM | 5.2 nM | 3 nM | 3.6 nM | 3.8 nM | 3.2 nM | 3.2 nM | 4.3 nM | 2.1 nM | 14 nM | 2 nM
